Legend:
eIF4A1 [1] = molecular target: T1, eIF4A1 (human, UniProt P60842 1-406); assay: EMSA; silvestrol, MgCl2, no ATP; fully bound with and without scavenger AG-RNA; 20 mM HEPES/KOH pH 7.5, 100 mM KCl, 1 mM TCEP, 1% DMSO, 2 mM AMPPNP/MgCl2, 25 C, 60 min; EMSA gels 6-7% acrylamide-TB, 0.5x TB; details: protein: recombinant; tags: N-terminal 6xHis-SUMO, cleaved; label: EMSA: 5' Dy780 / 5' Dy680; FRET: 5' Cy3 / 5' Cy5; 5' overhang 20 nt
eIF4A1 [2] = molecular target: T1, eIF4A1; assay: fluorescence anisotropy; 2 mM AMPPNP/MgCl2; affinity comparable to AG-RNA, Kd in figure only; 20 mM HEPES/KOH pH 7.5, 100 mM KCl, 1 mM TCEP, 1% DMSO, 2 mM AMPPNP/MgCl2, 25 C, 60 min; EMSA gels 6-7% acrylamide-TB, 0.5x TB; details: protein: recombinant; tags: N-terminal 6xHis-SUMO, cleaved; label: FAM or 5' Dy780
eIF4A1 [3] = molecular target: T1, eIF4A1; assay: EMSA; silvestrol; multimerisation observed; 20 mM HEPES/KOH pH 7.5, 100 mM KCl, 1 mM TCEP, 1% DMSO, 2 mM AMPPNP/MgCl2, 25 C, 60 min; EMSA gels 6-7% acrylamide-TB, 0.5x TB; details: protein: recombinant; tags: N-terminal 6xHis-SUMO, cleaved; label: FAM

T1 sequence (P60842 whole entry): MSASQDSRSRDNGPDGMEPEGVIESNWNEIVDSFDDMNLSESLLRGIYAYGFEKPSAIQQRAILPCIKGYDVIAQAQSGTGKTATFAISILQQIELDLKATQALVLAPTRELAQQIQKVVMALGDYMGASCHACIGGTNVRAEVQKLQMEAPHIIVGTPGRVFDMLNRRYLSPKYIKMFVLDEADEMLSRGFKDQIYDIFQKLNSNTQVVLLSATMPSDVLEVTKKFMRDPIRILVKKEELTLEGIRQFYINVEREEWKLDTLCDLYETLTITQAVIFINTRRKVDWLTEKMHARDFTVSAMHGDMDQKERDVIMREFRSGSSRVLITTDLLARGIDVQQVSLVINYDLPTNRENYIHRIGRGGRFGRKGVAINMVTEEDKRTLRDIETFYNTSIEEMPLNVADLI

B1: AG-overhang 24 bp substrate (EMSA/FRET loading + reporter) (dsRNA)
RNA 1: AGAGAGAGAGAGAGAGAGAGGAAAAAAUUAAAAAAUUAAAAAAC
RNA 2: GUUUUUUAAUUUUUUAAUUUUUUC
eIF4A1 [1]
  binding result: binds

B2: CAA-RNA (20 nt) (ssRNA)
RNA: CAACAACAACAACAACAACA
eIF4A1 [2]
  binding result: binds

B3: 10 nt AG-RNA (ssRNA)
RNA: AGAGAGAGAG
eIF4A1 [3]
  binding result: binds

Reference: PMC9976904, “eIF4A1-dependent mRNAs employ purine-rich 5’UTR sequences to activate localised eIF4A1-unwinding through eIF4A1-multimerisation to facilitate translation”
